B1: H2-Kb / H6 (parent)
chain 1: AQKVTQTQTSISVMEKTTVTMDCVYETQDSSYFLFWYKQTASGEIVFLIRQDSYKKENATVGHYSLNFQKPKSSIGLIITATQIEDSAVYFCAMRDYNQGKLIFGQGTKLSIKP
chain 2: EAAVTQSPRSKVAVTGGKVTLSCHQTNNHDYMYWYRQDTGHGLRLIHYSYVADSTEKGDIPDGYKASRPSQENFSLILELASLSQTAVYFCASSGTAANSDYTFGSGTRLLVI
chain 3: not shown
chain 4: IQKTPQIQVYSRHPPENGKPNILNCYVTQFHPPHIEIQMLKNGKKIPKVEMSDMSFSKDWSFYILAHTEFTPTETDTYACRVKHDSMAEPKTVYWDRDM
chain 5: SIINFEKL
B2: H2-Kb / B16 (parent)
chain 1: QQQVRQSPQSLTVWEGGTTVLTCSYEDSTFNYFPWYQQFPGEGPALLISILSVSDKKEDGRFTTFFNKREKKLSLHIIDSQPGDSATYFCAARGSALGRLHFGAGTQLIVIP
chain 2: EAAVTQSPRSKVAVTGGKVTLSCHQTNNHDYMYWYRQDTGHGLRLIHYSYVADSTEKGDIPDGYKASRPSQENFSLILELASLSQTAVYFCASSDGTNQAPLFGEGTRLSVL
chain 3: not shown
chain 4: B1 chain 4
chain 5: SIINFEKL
B3: H2-Kb / E4 (parent)
chain 1: AQSVTQPDARVTVSEGASLQLRCKYSYSGTPYLFWYVQYPRQGLQLLLKYYSGDPVVQGVNGFEAEFIKSNSSFHLRKASVHWSDSAVYFCAVSAGQGGSAKLIFGEGTKLTVSS
chain 2: GGIITQTPKFLIGQEGQKLTLKCQQNFNHDTMYWYRQDSGKGLRLIYYSITENDLQKGDLSEGYDASREKKSSFSLTVTSAQKNEMAVFLCASSIWGDSYEQYFGPGTRLTVL
chain 3: not shown
chain 4: B1 chain 4
chain 5: SIINFEKL

Variants of: B1
Assay: % of reporter cells activated (NFAT-GFP), raw
Details: with H6; scale: % of reporter cells activated
Also: test concentration or dose not given here.

Ratio to parent of substitutions, site by site:
chain 5 E6: D 0.365, R 0.097, V 0.0536, Q 0.0813, S 0.107, K 0.131, F 0.11, C 0.0748, G 0.168, T 0.0942, W 0.084, I 0.0822, A 0.0933, M 0.0896, P 0.0822, N 0.102, L 0.0813, H 0.0877, Y 0.0997
chain 5 F5: G 0.381, N 0.446, W 0.795, I 0.711, S 0.6, L 0.863, E 0.163, P 0.546, Q 0.495, T 0.694, K 0.173, H 0.777, C 1.01, M 1.14, D 0.192, A 0.809, Y 0.516, V 0.796, R 0.248
chain 5 I3: D 0.149, C 1.57, A 1.33
chain 5 I2: G 0.956, T 1.49, K 0.24, L 1.29, N 0.541, D 1.01, R 0.281, H 0.243, Y 0.408, M 0.624, W 0.585, Q 0.385, S 1.56, C 1.27, V 1.54, A 1.5, E 1.09, F 0.733, P 0.351

Variants of: B2
Assay: % of reporter cells activated (NFAT-GFP), raw
Details: with B16; scale: % of reporter cells activated

Ratio to parent, by site and new letter:
chain 5 I3: K 1.44, P 2.05, M 1.4, N 1.37, H 1.38, E 1.3, V 1.07, T 1.24, F 1.11, W 1.08, D 1.13, R 0.807, C 1.52, Q 1.5, L 1.28, G 1.22, S 1.5, A 1.55, Y 1.33
chain 5 F5: M 1.52, I 1.07, T 1.4, A 1.48, E 1.52, R 1.2, H 1.61, S 1.27, D 1.4, V 0.945, K 1.52, G 1.52, Q 1.39, P 1.74, W 1.26, Y 1.31, C 1.46, N 1.21, L 1.44
chain 5 S1: R 0.846, D 1.29, P 1.3, E 1.26, H 1.37, V 1.16, I 1.35, F 1.35, C 1.57, T 1.36, A 1.54, K 1.38, Q 1.28, M 1.08, N 1.09, G 1.43, Y 1.56, W 0.941, L 1.11
chain 5 N4: H 1.26, K 1.37, M 1.21, G 1.35, I 1.25, A 1.39, E 1.25, C 1.2, Q 0.992, F 0.909, L 1.48, V 1.14, T 1.04, R 0.969, W 1.13, D 1.19, S 1.09, P 1.25, Y 0.87
chain 5 E6: C 2.48, L 1.21, P 1.09, G 1.23, Y 1.02, T 1.4, K 1.12, D 1.36, S 1.25, H 1.39, W 1.05, Q 1.5, N 1.36, I 0.917, V 1.2, A 1.57, R 1.29, F 1.48, M 1.43
chain 5 K7: A 1.29, F 1.01, Q 1.39, S 0.657, Y 0.996, I 1.41, D 0.886, M 0.921, P 1.02, L 1.03, H 1.21, C 1.33, W 0.496, N 0.823, G 1.06, R 0.488, V 0.823, T 0.665, E 1.16
chain 5 L8: D 0.823, N 0.744, C 0.996, R 1.28, A 0.921, K 0.827, M 0.799, V 0.697, I 0.602, Q 1.04, W 0.689, G 1.26, Y 1.24, T 0.787, F 0.579, H 1.1, P 1.36, E 0.547, S 0.65
chain 5 I2: T 1.34, N 1.26, Y 1.3, D 1.19, W 1.35, E 1.47, L 1.51, P 1.48, V 1.33, K 1.52, Q 1.21, M 1.11, G 1.56, F 1.2, S 1.34, R 0.921, C 1.48, A 1.49, H 1.62

Variants of: B3
Assay: % of reporter cells activated (NFAT-GFP), raw
Details: with E4

Ratio to parent of substitutions, site by site:
chain 5 S1: R 0.565, K 1.24, A 0.857, L 0.937, V 0.889, C 0.952, T 0.905, H 0.841, Y 0.873, E 0.698, P 0.857, Q 0.889, D 0.984, F 0.857, N 0.825, M 0.857, G 0.937, W 0.841, I 0.825
chain 5 N4: K 1.1, W 0.286, H 1.05, E 0.603, F 0.635, Q 0.714, D 0.794, L 1.02, P 0.651, Y 0.762, V 0.825, A 0.889, I 0.873, C 0.921, T 0.635, S 0.714, M 0.968, G 0.698, R 0.905
chain 5 I3: D 0.73, A 0.921, R 0.603, L 1.22, Y 0.508, W 0.762, H 0.921, E 1.37, F 0.762, K 0.937, M 1, N 0.667, S 0.762, C 0.762, Q 0.81, V 0.698, G 0.825, T 0.571, P 0.206
chain 5 I2: K 0.746, N 1.27, Q 0.937, S 0.651, V 0.921, L 1.1, R 0.556, H 1.06, G 0.873, A 1.43, E 0.873, T 0.968, D 0.762, F 0.746, W 1.11, P 0.937, Y 0.825, M 1.14, C 1.19
chain 5 F5: V 0.206, W 0.54, Q 0.778, P 0.762, T 0.841, R 0.508, Y 0.492, S 0.556
chain 5 K7: N 0.437, V 0.841, A 0.413, C 1.32, R 0.633, M 0.492, I 1.29, G 0.841, D 0.444, S 0.46, F 0.49, T 0.378, E 0.873, P 0.508, Q 0.521, W 0.413, H 0.905, L 0.508, Y 0.425
chain 5 L8: M 0.381, S 0.51, F 0.427, G 0.746, C 0.46, P 0.762, T 0.73, A 0.286, H 0.825, Y 0.6, W 0.762, Q 0.524, R 1.29, E 0.619, V 0.603, N 0.778, D 0.444, K 0.635, I 0.286
